According to the supplement of paper PMC10065799, “High-throughput profiling of sequence recognition by tyrosine kinases and SH2 domains using bacterial peptide display” (eLife, 2023):

Tests used:
[1] = target: c-Src SH2; assay: SH2 binding enrichment of the phosphorylated peptide, bacterial display (enrichment ratio); higher = better substrate or ligand; peptides without Tyr show the background
[2] = target: SHP2-C SH2; assay: as above
[3] = target: Grb2 SH2 (UniProt P62993); assay: as above
[4] = target: Hck (UniProt P08631); assay: phosphorylation enrichment, bacterial display (enrichment ratio); higher = better substrate or ligand; peptides without Tyr show the background
[5] = target: Fyn (UniProt P06241); assay: as above
Chain of Fyn (P06241 whole entry, looked up): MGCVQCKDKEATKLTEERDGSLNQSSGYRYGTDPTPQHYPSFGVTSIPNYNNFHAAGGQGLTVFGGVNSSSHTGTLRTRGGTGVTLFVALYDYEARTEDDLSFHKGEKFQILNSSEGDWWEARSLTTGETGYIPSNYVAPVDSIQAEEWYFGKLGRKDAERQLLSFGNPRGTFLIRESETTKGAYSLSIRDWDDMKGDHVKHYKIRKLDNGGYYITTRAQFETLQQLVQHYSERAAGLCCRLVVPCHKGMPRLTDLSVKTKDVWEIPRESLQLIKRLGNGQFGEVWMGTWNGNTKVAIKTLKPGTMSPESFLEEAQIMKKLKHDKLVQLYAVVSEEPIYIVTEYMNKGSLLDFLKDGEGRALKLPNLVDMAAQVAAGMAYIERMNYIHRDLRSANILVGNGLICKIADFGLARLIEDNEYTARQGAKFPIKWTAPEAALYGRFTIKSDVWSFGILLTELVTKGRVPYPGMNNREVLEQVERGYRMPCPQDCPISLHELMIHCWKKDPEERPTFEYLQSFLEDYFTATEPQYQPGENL

[6] = target: Fes (UniProt P07332); assay: as above
[7] = target: FGFR3 (UniProt P22607); assay: as above
[8] = target: Jak2 (UniProt O60674); assay: as above
Chain of Jak2 (O60674 whole entry, looked up): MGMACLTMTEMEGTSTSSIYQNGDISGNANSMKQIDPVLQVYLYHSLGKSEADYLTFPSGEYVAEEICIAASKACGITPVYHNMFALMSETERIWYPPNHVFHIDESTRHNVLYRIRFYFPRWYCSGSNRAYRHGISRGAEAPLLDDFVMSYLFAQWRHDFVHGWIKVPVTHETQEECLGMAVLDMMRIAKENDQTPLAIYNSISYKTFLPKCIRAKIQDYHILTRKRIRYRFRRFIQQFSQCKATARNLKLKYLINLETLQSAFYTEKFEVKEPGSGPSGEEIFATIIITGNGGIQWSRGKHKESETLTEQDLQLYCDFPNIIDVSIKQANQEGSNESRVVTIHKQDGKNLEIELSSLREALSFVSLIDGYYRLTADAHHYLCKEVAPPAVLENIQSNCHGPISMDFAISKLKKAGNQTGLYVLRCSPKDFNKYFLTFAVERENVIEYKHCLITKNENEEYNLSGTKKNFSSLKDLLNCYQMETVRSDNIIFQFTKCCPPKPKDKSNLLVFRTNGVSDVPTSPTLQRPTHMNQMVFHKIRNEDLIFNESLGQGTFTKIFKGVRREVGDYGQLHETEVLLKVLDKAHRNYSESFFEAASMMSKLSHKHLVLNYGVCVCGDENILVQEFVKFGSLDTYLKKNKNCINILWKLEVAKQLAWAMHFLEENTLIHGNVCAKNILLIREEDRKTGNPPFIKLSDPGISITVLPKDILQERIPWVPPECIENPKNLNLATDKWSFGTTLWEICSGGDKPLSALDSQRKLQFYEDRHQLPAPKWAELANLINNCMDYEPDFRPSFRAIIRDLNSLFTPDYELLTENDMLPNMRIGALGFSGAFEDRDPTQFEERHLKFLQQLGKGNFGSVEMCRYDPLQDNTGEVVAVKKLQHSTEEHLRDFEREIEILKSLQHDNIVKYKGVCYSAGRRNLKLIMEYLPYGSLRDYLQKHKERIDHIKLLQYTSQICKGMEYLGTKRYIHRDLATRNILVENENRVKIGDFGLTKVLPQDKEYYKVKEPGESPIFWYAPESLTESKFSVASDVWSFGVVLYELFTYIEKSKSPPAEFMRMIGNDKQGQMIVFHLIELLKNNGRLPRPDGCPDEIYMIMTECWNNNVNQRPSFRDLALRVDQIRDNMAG

[9] = tested on: AncSZ; assay: as above
[10] = target: EPHB2 (UniProt P29323); assay: as above
Chain of EPHB2 (P29323 whole entry, looked up): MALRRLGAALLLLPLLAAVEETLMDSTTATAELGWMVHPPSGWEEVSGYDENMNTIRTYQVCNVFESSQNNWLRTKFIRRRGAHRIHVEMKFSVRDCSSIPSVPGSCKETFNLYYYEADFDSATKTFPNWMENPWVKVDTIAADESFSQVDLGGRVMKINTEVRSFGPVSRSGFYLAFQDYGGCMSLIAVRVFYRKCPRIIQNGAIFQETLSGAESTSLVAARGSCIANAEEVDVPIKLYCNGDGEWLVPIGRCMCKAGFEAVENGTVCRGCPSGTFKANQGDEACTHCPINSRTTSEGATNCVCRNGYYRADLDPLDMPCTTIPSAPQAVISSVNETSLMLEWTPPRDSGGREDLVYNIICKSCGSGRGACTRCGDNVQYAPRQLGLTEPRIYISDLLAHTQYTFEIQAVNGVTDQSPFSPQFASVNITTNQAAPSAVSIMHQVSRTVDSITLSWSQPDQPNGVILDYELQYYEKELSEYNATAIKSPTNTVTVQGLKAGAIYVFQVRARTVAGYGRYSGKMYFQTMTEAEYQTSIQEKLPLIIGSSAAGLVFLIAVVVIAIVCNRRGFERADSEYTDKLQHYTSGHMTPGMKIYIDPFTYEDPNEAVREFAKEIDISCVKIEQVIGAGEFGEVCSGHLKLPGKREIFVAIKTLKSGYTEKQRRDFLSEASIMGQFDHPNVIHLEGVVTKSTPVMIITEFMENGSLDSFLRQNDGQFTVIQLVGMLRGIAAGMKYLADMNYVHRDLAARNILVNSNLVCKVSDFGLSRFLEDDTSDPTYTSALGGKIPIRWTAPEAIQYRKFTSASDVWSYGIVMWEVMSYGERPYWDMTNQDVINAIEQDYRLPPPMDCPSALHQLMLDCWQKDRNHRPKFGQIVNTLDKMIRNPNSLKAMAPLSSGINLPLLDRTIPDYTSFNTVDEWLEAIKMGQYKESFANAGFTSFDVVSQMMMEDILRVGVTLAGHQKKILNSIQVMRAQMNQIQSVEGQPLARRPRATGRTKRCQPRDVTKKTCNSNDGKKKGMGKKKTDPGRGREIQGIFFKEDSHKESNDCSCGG

[11] = tested on: c-Abl (mouse); assay: as above
[12] = target: FGFR1 (UniProt P11362); assay: as above
[13] = tested on: Fer (mouse); assay: as above
[14] = tested on: c-Src; assay: as above
[15] = target: EPHB1 (UniProt P54762); assay: as above
Chain of EPHB1 (P54762 whole entry, looked up): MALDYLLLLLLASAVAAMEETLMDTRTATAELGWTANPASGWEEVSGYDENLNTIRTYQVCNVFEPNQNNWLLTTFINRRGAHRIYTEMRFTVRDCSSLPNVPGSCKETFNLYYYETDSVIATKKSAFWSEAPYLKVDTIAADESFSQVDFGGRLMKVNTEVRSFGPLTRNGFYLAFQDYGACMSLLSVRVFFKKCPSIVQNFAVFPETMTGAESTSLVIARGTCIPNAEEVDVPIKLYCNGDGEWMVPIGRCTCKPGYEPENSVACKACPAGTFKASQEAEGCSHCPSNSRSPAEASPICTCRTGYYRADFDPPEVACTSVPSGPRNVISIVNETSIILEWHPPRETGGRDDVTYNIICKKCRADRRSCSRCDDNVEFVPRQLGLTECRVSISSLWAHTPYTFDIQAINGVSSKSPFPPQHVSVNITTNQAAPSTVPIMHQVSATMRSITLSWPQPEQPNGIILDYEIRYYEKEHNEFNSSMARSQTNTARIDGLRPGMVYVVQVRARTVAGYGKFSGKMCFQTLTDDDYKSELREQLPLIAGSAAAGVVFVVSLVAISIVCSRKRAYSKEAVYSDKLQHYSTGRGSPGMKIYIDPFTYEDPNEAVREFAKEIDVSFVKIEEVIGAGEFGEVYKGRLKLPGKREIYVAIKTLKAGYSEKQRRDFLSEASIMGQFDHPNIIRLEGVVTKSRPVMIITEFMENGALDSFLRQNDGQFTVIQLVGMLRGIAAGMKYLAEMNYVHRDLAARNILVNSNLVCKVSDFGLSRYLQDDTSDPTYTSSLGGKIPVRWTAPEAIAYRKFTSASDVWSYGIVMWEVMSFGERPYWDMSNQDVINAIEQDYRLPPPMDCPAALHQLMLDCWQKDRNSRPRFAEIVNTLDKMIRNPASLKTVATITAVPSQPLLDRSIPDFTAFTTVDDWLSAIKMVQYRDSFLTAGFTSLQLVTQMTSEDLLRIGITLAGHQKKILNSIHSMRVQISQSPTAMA

[16] = target: MERTK (UniProt Q12866); assay: as above
Chain of MERTK (Q12866 whole entry, looked up, the tested form may be a part): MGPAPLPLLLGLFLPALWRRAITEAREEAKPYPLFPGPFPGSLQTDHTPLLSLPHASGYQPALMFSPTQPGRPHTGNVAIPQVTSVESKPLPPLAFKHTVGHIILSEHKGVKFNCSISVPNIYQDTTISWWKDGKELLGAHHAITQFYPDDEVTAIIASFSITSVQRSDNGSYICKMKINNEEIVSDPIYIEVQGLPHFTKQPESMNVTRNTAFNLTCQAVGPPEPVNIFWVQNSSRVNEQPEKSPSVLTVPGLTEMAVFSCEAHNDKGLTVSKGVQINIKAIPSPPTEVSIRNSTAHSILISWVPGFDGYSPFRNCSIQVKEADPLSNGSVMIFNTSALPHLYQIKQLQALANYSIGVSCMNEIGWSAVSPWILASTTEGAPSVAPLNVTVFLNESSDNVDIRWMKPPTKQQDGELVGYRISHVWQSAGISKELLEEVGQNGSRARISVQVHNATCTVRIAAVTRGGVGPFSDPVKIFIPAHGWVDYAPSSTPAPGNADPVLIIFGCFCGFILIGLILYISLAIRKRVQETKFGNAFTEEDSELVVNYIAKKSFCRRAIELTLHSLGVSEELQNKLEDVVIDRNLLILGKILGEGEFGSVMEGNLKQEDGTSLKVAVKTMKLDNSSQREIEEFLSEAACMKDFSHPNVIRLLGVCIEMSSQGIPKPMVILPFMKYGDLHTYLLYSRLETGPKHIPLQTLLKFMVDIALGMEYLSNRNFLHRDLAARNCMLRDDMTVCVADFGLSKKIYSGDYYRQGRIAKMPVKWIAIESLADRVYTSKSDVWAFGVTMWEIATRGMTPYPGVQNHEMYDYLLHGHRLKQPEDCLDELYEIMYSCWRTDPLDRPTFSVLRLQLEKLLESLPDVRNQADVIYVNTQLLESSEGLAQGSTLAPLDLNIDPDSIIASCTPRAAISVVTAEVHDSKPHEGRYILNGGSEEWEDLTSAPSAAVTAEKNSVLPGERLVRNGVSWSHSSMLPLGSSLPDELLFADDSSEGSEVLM
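Wherever SH2 binding enrichment of the phosphorylated peptide, bacterial display is given: peptide library displayed on the E. coli surface as eCPX fusions, selected cells deep-sequenced, score is each peptide's frequency after selection divided by its frequency in the input.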
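Wherever phosphorylation enrichment, bacterial display is given: 11-residue human phosphosite peptides and single-mutation variants displayed on the E. coli surface, counted by deep sequencing, each peptide's frequency after selection divided by its frequency in the unselected input library; frequency after pTyr selection over input frequency; kinase dosed for 20-30% of maximal phosphorylation in three min.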

SH2 binding enrichment [1] | SH2 binding enrichment [2] | SH2 binding enrichment [3] | Sequence | phosphorylation enrichment [4] | phosphorylation enrichment [5] | phosphorylation enrichment [6] | phosphorylation enrichment [7] | phosphorylation enrichment [8] | phosphorylation enrichment [9] | phosphorylation enrichment [10] | phosphorylation enrichment [11] | phosphorylation enrichment [12] | phosphorylation enrichment [13] | phosphorylation enrichment [14] | phosphorylation enrichment [15] | phosphorylation enrichment [16]
10.6 | 0.546 | 0.546 | HGVSSYDTIIS [LDLR_Y465_V468I] | 0.738 | 0.669 | 1.08 | 0.785 | 1.08 | 1.06 | 0.819 | 1.63 | 0.944 | 0.712 | 1.03 | 0.827 | 0.797
0.723 | 0.535 | 0.755 | SDYSRYARTSI [TERT_Y949_S948R] | 0.428 | 0.443 | 0.581 | 0.351 | 0.549 | 0.59 | 0.495 | 0.46 | 0.428 | 0.388 | 0.444 | 0.434 | 0.444
0.526 | 0.571 | 0.83 | KIITDYFVDMK [MPP4_Y566_V562I_YF] | 0.479 | 0.513 | 1.15 | 0.783 | 1.14 | 1.05 | 0.566 | 0.644 | 0.732 | 0.456 | 0.529 | 0.575 | 0.37
0.495 | 0.635 | 0.784 | SYSGEYGGGGG [ZG16_Y30] | 0.525 | 0.485 | 0.685 | 0.552 | 0.4 | 0.604 | 0.452 | 0.433 | 0.53 | 0.444 | 0.385 | 0.398 | 0.439
0.593 | 0.526 | 0.757 | AALRLYHVSDS [VIL1_Y256_K254R] | 0.485 | 0.579 | 0.959 | 0.763 | 0.734 | 0.738 | 0.508 | 0.798 | 0.641 | 0.531 | 0.451 | 0.617 | 0.478
0.462 | 0.645 | 0.866 | GIFEDYVEGLR [MYL6_Y89_T85I_YF] | 0.484 | 0.7 | 1.17 | 0.793 | 1.22 | 1.25 | 0.7 | 0.857 | 0.567 | 0.607 | 0.536 | 0.787 | 0.393
1.26 | 1.32 | 1.46 | LRWREYQRQDY [PRKRIP1_Y90_R87W] | 0.453 | 0.574 | 0.957 | 0.585 | 0.997 | 1.12 | 0.761 | 0.737 | 0.626 | 0.376 | 0.486 | 0.439 | 0.409
1.59 | 1.09 | 1.33 | PYRQWYESHYA [RPS8_Y113] | 1.3 | 1.09 | 1.69 | 1.1 | 1.37 | 1.61 | 2.27 | 1.19 | 1.36 | 10.9 | 2.35 | 2.82 | 1.86
0.611 | 0.769 | 1.06 | CKPGFYNLKEK [LAMA1_Y490] | 0.357 | 0.359 | 0.793 | 0.507 | 0.602 | 0.693 | 0.469 | 0.568 | 0.472 | 0.43 | 0.34 | 0.543 | 0.378
0.319 | 0.589 | 0.699 | DYGSGYPNDPK [RNASEH2A_Y210] | 0.574 | 0.474 | 1.01 | 0.643 | 0.93 | 0.86 | 0.625 | 0.778 | 0.548 | 0.538 | 0.575 | 0.482 | 0.569
0.605 | 1.39 | 0.896 | KELAPYDENRF [RPS19_Y48_W52R] | 0.512 | 0.485 | 1.36 | 0.79 | 1.05 | 1.05 | 0.553 | 0.983 | 0.48 | 0.579 | 0.577 | 0.594 | 0.5
0.609 | 0.744 | 0.712 | DTNIAYCLHPR [POMT1_Y581_W582C] | 0.431 | 0.541 | 1.06 | 0.691 | 0.754 | 0.831 | 0.532 | 0.753 | 0.471 | 0.505 | 0.568 | 0.549 | 0.695
0.705 | 0.952 | 0.997 | PSFSEYASVQV [SIRPA_Y496] | 1.93 | 2.49 | 0.801 | 1.05 | 1.02 | 1.11 | 8.42 | 4.02 | 1.05 | 3.49 | 2.35 | 6.25 | 0.474

The remaining lines, values behind:

Sequence | SH2 binding enrichment [1] | SH2 binding enrichment [2] | SH2 binding enrichment [3] | phosphorylation enrichment [4] | phosphorylation enrichment [5] | phosphorylation enrichment [6] | phosphorylation enrichment [7] | phosphorylation enrichment [8] | phosphorylation enrichment [9] | phosphorylation enrichment [10] | phosphorylation enrichment [11] | phosphorylation enrichment [12] | phosphorylation enrichment [13] | phosphorylation enrichment [14] | phosphorylation enrichment [15] | phosphorylation enrichment [16]
FALAEYTEVKT [ALDH1A3_Y497_YF] | 1.9 | 0.506 | 0.861 | 0.635 | 0.719 | 1.11 | 0.903 | 0.765 | 1.03 | 0.475 | 0.757 | 0.894 | 0.567 | 0.621 | 0.59 | 0.45
DNLSNYVFQGQ [GRIN2A_Y978_N976S] | 0.601 | 0.818 | 0.904 | 0.41 | 0.475 | 0.796 | 0.611 | 0.783 | 0.71 | 1.22 | 0.546 | 0.571 | 0.416 | 0.454 | 2.09 | 0.618
SGADSYEMEED [EGFR_Y316_C311S] | 0.728 | 0.701 | 0.979 | 0.668 | 0.625 | 1.16 | 0.871 | 1.12 | 1.29 | 0.585 | 0.749 | 0.822 | 0.52 | 0.561 | 0.574 | 0.722
NVKGIYAVGDV [GSR_Y371] | 0.533 | 0.738 | 0.741 | 3.55 | 4.37 | 0.865 | 0.574 | 0.66 | 0.714 | 0.564 | 1.44 | 0.521 | 0.572 | 3.73 | 0.619 | 1.31
HHFAAYFQQGD [GPI_Y351_R347H] | 0.661 | 0.898 | 1.21 | 0.549 | 0.418 | 1.13 | 1.19 | 0.989 | 0.906 | 0.602 | 0.945 | 0.669 | 0.435 | 0.725 | 0.581 | 0.475
GRVYVYHLSEQ [ITGAE_Y551_R552H] | 0.907 | 6.94 | 1.01 | 0.602 | 0.835 | 1.13 | 0.712 | 0.994 | 1.03 | 0.548 | 0.646 | 0.559 | 0.531 | 0.799 | 0.645 | 0.386
EFGRRYGFSCQ [CCDC93_Y209_R213C_YF] | 0.495 | 0.635 | 0.856 | 0.418 | 0.547 | 0.989 | 0.62 | 0.911 | 0.914 | 0.504 | 0.733 | 0.629 | 0.534 | 0.468 | 0.539 | 0.491
GYGGGYGGVLT [KRT19_Y65_A60G] | 0.448 | 0.791 | 0.742 | 0.665 | 0.42 | 0.641 | 0.511 | 0.575 | 0.556 | 0.47 | 0.468 | 0.468 | 0.419 | 0.453 | 0.359 | 0.391
IKIMGSSIRTI [IDS_Y490_Y490S] | 0.533 | 0.717 | 0.836 | 0.435 | 0.411 | 0.53 | 0.45 | 0.492 | 0.557 | 0.393 | 0.526 | 0.502 | 0.387 | 0.414 | 0.436 | 0.424
CTLLPYFSAPV [DGKE_Y269_R273P_YF] | 0.462 | 0.622 | 0.71 | 0.557 | 0.518 | 1.34 | 0.826 | 1.19 | 1.24 | 0.677 | 0.896 | 0.615 | 0.493 | 0.569 | 0.66 | 0.453
PLFRVYGLESL [INSR_Y94_L89P] | 0.345 | 0.663 | 0.851 | 0.574 | 1.03 | 1.43 | 0.686 | 1.43 | 1.2 | 0.673 | 1.15 | 0.58 | 0.571 | 0.864 | 0.803 | 0.508
LTNDRYVATLT [IL6ST_Y396_L397V] | 0.537 | 0.527 | 0.764 | 0.394 | 0.576 | 0.791 | 0.82 | 0.808 | 0.683 | 0.72 | 0.434 | 0.619 | 0.408 | 0.69 | 0.607 | 0.622
ANQDDYISFRH [IMP4_Y226] | 0.46 | 0.617 | 0.821 | 1.19 | 0.899 | 0.841 | 0.967 | 0.901 | 1.17 | 0.469 | 0.557 | 1.07 | 0.357 | 1.11 | 0.507 | 0.482
GDEVEYMLVSF [GCLC_Y53] | 0.407 | 0.701 | 0.821 | 1.15 | 0.841 | 1.1 | 3.39 | 0.976 | 2.31 | 0.829 | 0.677 | 3.97 | 2.43 | 1.16 | 0.665 | 0.473
NRLTDYFELLL [BBS10_Y536_P539L_YF] | 0.834 | 1.29 | 1.33 | 0.509 | 0.622 | 1.31 | 5 | 1.35 | 1.36 | 0.633 | 0.765 | 7.17 | 0.534 | 0.619 | 0.654 | 0.442
KVKPIYFHTRG [AR_Y916_Q920R] | 1.84 | 2.07 | 2.2 | 0.527 | 0.448 | 0.892 | 0.614 | 0.885 | 0.853 | 0.498 | 0.633 | 0.598 | 0.416 | 0.477 | 0.452 | 0.456
TLLSAYQIPRT [GAB2_Y324_P320L] | 0.786 | 0.73 | 0.91 | 0.533 | 0.387 | 0.74 | 0.531 | 0.68 | 0.729 | 0.42 | 9.51 | 0.418 | 0.545 | 0.435 | 0.55 | 1.18
LDYNEYVRDLN [HPRT1_Y198_F199V] | 0.757 | 1.03 | 0.795 | 0.712 | 0.695 | 1.23 | 1.07 | 1.06 | 1.63 | 0.993 | 0.587 | 0.951 | 0.535 | 0.565 | 0.761 | 0.441
RVNSAYQEKVS [ACAN_Y100_D102E] | 0.448 | 0.529 | 1.08 | 0.49 | 0.378 | 0.667 | 0.423 | 0.538 | 0.407 | 0.397 | 0.489 | 0.678 | 0.313 | 0.291 | 0.413 | 0.5
IHETTYNSIKK [ACTA1_Y281_M285K] | 1.05 | 1.63 | 0.673 | 0.69 | 0.391 | 0.689 | 0.482 | 0.532 | 0.449 | 0.403 | 0.455 | 0.467 | 0.35 | 0.442 | 0.382 | 0.369
